Assay in all cases: purified protein
Substrate in series [1]: O=S(O)(O)=S
Type of series: biochemical, Saccharomyces cerevisiae.

Substrate in series [2]: O=S(O)(O)=S
To be noted: pH 7.4; 37.0 °C.

Substrate in series [3]: O=S(O)(O)=S
Type of series: biochemical, Homo sapiens. Particulars: Reaction 1, sulfur donor, fixed KCN, 300 mM HEPES pH 7.4, room temperature. The text has this:
thiosulfate:cyanide sulfurtransferase, ferric thiocyanate colorimetry, Michaelis-Menten fit on TST

Setting [4] is: Reaction 1, sulfur donor, fixed KCN, 300 mM HEPES pH 7.4, 25 °C.

As a reminder, the Km is the concentration of substrate that gives half-maximal velocity. Usually kcat stands for the number of substrate molecules converted per active site and unit of time at saturation.

Residue numbers refer to the chain shown, from its start. Names may count otherwise.

B1: RDL2 (Saccharomyces cerevisiae S288C) (protein)
chain: MFKHSTGILSRTVSARSPTLVLRTFTTKAPKIYTFDQVRNLVEHPNDKKLLVDVREPKEVKDYKMPTTINIPVNSAPGALGLPEKEFHKVFQFAKPPHDKELIFLCAKGVRAKTAEELARSYGYENTGIYPGSITEWLAKGGADVKPKK
notes: His-tagged, pET30a, E. coli BL21(DE3), Ni-NTA and size exclusion; no firm dimer in crystal; active-site loop CAKGVR with Cys106 and Arg111
As to B1, in the series “purified protein [1]” (setting [4]), the Km amounted to 32.5 ± 3.50 mM and the kcat worked out at 15.32 s⁻¹.

B2: RDL2 (Saccharomyces cerevisiae S288C; K108A) (protein)
chain: B1 chain with K108A
notes: as for B1
As to B2, in “purified protein [1]” (setting [4]), the Km is 93.23 ± 2.67 mM and the kcat was 8.71 s⁻¹.

B3: TST (Homo sapiens; T253V) (protein)
chain: MVHQVLYRALVSTKWLAESIRTGKLGPGLRVLDASWYSPGTREARKEYLERHVPGASFFDIEECRDTASPYEMMLPSEAGFAEYVGRLGISNHTHVVVYDGEHLGSFYAPRVWWMFRVFGHRTVSVLNGGFRNWLKEGHPVTSEPSRPEPAVFKATLDRSLLKTYEQVLENLESKRFQLVDSRSQGRFLGTEPEPDAVGLDSGHIRGAVNMPFMDFLTEDGFEKGPEELRALFQTKKVDLSQPLIATCRKGVVACHVALAAYLCGKPDVAVYDGSWSEWFRRAPPESRVSQGKSEKA
Regarding B3, in the series “purified protein [2]”, the Km is on record as 2.43 ± 0.70 mM and the kcat amounted to 0.025 s⁻¹.

B4: TST (Homo sapiens) (protein)
chain: B3 chain with V253T
notes: codon-optimized synthetic gene, pET30a, E. coli BL21(DE3), Ni-NTA and size exclusion; tandem-domain rhodanese, active-site loop CRKGVT ending in Thr253
As for B4, in the series “purified protein [3]”, the Km worked out at 15.68 ± 2.86 mM and the kcat amounted to 101.73 s⁻¹.

B5: RDL1 (Saccharomyces cerevisiae S288C) (protein)
chain: MWKAVMNAWNGTESQSKNVSNIQSYSFEDMKRIVGKHDPNVVLVDVREPSEYSIVHIPASINVPYRSHPDAFALDPLEFEKQIGIPKPDSAKELIFYCASGKRGGEAQKVASSHGYSNTSLYPGSMNDWVSHGGDKLDL
On to B5, for which the Km in “purified protein [1]” (pH 7.4) stood at 4.0 ± 0.4 mM.

Values taken from article PMC8533005.
